Measured values reported in patent US20030190679A1 (Takeda / Millennium, published 2003).

Columns and labels:
[1] = target: T1, myc-tagged CARD-12 (human, UniProt Q9NPP4 1-1024); experiment: co-immunoprecipitation from 293T lysates (IP anti-T7, blot anti-myc)
T1 construct: Transiently overexpressed in 293T cells
Method: FIGS. 10A-10C depict the results of co-immunopreciptation analysis. FIG. 10A: After 24 hrs, extracts were prepared and immunoprecipitated (IP) with a monoclonal antibody to the T7 epitope. The immunoprecipitates were analyzed by SDS-PAGE and immunoblotted with an anti-myc polyclonal antibody. FIG. 10B: The cellular extracts were also immunoblotted (WB) with anti-T7 antibody. FIG. 10C: Extracts were also immunoprecipitated with a monoclonal antibody to myc, followed by WB with an anti-myc polyclonal antibody.
An additional mechanism by which CARD-12 may cause cell death is by the activation of upstream caspases via a CARD/CARD interaction. The proform of caspase-1 and caspase-9 both contain an N-terminal CARD. Therefore, caspase-1 and caspase-9 were investigated as possible CARD-12 signaling partners following transient overexpression in cells. Briefly, 293T cells transfected with plasmids were lysed in 50 mM Tris, pH 8.0, 120 mM NaCl, 1 mM EDTA, 0.5% Nonidet P-40 buffer and incubated with either a T7 (Sigma) or myc monoclonal antibody (SantaCruz Biotechnology, Inc.). The immune complexes were precipitated with protein G-Sepharose (Amersham Pharmacia Bio), washed extensively, and then subjected to SDS-polyacrylamide gel electrophoresis and immunoblotted with polyclonal antibody to myc (SantaCruz). […]

[2] = target: CARD domain of CARD-5 (ASC) fused to the DNA-binding domain of pCMV-BD (UniProt Q9ULZ3 107-195); experiment: cell-based or functional assay
[3] = target: CARD domain of CARD-12 fused to the DNA-binding domain of pCMV-BD (self-association partner) (human); experiment: cell-based or functional assay

Chain of CARD domain of CARD-5 (ASC) fused to the DNA-binding domain of pCMV-BD (Q9ULZ3 whole entry, the tested form may be a part): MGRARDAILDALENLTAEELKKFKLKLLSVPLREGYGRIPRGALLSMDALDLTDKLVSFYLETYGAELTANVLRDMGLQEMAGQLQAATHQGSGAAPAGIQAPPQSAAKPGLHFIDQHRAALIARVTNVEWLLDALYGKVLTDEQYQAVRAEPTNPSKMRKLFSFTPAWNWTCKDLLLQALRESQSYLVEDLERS

| binding result [1] | relative luciferase activity (mammalian two-hybrid) [2] [fold] | relative luciferase activity (mammalian two-hybrid) [3] [fold] | Binder |
| --- | --- | --- | --- |
| no binding |  |  | T7-tagged procaspase-9 (enzyme, UniProt P55211 1-416, looked up, not shown: small tags and cut ends, Transiently overexpressed in 293T cells) MDEADRRLLRRCRLRLVEELQVDQLWDALLSRELFRPHMIEDIQRAGSGSRRDQARQLIIDLETRGSQALPLFISCLEDTGQDMLASFLRTNRQAAKLSKPTLENLTPVVLRPEIRKPEVLRPETPRPVDIGSGGFGDVGALESLRGNADLAYILSMEPCGHCLIINNVNFCRESGLRTRTGSNIDCEKLRRRFSSLHFMVEVKGDLTAKKMVLALLELAQQDHGALDCCVVVILSHGCQASHLQFPGAVYGTDGCPVSVEKIVNIFNGTSCPSLGGKPKLFFIQACGGEQKDHGFEVASTSPEDESPGSNPEPDATPFQEGLRTFDQLDAISSLPTPSDIFVSYSTFPGFVSWRDPKSGSWYVETLDDIFEQWAHSEDLQSLLLRVANAVSVKGIYKQMPGCFNFLRKKLFFKTS |
|  | 10 | 30 | CARD domain of CARD-12 (residues 1-83) fused to the activation domain of pCMV-AD (plasmid pCMV-CARD-12-CARD/AD) (other, not shown: large carriers) MNFIKDNSRALIQRMGMTVIKQITDDLFVWNVLNREEVNIICCEKVEQDAARGIIHMILKKGSESCNLFLKSLKEWNYPLFQD |
